# Like-named read-outs stand apart in the source and are kept apart here.
# Design: species or system rats
# Settings: rat, in vivo, 1 mg/kg
substance,measurement,setting,value
interferon,Mean peak serum interferon concentration,,79±100
same,Mean peak serum interferon concentration,po,1951±1857

# Reference: patent US5776888A, “Compounds and compositions for delivering active agents” (Emisphere Technologies, Inc., priority 1997, dated 1998)
